The text below walks through data of patent US20240368668A1, “SUBSTRATES AND BIOMARKERS OF ADAMTS7” (The Broad Institute, Inc., priority 2021, published 2024).

This experiment addresses T1, mouse ADAMTS7 (Mus musculus, UniProt Q68SA9, E373Q).
T1 construct: Full-length mouse Adamts7 1-1857 (Uniprot Q68SA9, WT or E373Q catalytic mutant); expressed in transfected cells; host or cells: Human Coronary Artery Smooth Muscle Cells (HCA-SMC, Lonza), adenovirus 50 MOI
T1 sequence (Q68SA9 221-1657 E373Q): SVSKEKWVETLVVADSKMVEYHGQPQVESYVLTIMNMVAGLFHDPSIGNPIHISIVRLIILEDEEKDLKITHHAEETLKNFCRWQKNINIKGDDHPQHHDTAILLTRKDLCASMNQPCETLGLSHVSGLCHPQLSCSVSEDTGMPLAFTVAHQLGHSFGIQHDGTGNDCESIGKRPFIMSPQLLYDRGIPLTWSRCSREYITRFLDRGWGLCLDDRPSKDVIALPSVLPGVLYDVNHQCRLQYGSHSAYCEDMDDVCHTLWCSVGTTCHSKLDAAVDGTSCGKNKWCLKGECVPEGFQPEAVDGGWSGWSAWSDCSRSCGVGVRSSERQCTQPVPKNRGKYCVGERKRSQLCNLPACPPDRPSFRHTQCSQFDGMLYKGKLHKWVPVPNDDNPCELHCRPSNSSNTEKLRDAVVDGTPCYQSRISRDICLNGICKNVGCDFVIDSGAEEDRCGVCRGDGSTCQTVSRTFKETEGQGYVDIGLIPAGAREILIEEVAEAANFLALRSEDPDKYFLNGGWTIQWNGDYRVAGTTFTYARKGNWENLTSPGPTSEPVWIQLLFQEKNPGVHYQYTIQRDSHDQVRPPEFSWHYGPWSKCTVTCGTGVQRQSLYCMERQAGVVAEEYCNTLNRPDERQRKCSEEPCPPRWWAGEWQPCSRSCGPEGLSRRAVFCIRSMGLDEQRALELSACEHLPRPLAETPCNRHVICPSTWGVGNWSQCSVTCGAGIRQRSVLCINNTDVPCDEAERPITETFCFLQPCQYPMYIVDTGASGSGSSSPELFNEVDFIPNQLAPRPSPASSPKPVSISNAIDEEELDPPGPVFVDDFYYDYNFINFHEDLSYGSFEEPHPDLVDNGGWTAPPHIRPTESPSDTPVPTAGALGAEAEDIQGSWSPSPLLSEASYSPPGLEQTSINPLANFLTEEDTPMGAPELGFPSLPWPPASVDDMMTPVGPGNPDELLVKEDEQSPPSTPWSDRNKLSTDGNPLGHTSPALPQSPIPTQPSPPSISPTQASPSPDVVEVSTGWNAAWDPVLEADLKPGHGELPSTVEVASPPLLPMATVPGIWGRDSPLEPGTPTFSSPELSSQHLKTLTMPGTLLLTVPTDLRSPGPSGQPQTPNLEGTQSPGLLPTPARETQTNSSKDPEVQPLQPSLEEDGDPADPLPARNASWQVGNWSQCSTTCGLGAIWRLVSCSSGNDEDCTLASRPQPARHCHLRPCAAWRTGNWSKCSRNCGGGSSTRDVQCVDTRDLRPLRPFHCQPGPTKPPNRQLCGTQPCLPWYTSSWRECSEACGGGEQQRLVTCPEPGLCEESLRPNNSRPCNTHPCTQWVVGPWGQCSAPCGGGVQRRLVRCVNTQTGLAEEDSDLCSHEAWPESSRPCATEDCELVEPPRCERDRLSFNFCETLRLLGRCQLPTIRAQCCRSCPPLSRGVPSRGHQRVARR
Kind of experiment: TMT10 TAILS N-terminomics, HUVEC experiment (process replicates, trypsin/AspN digest). Format: cell-based, human. As to conditions: HUVEC TAILS HC; log fold change of N-terminal peptide, Ad-mADAMTS7 EQ over Luc. An excerpt: ADAMTS7 Expression, Cell Culture and Preparation of the Secreted Proteins—Full-length mouse Adamts7 1-1857 (Uniprot Q68SA9, WT or E373Q catalytic mutant) with a carboxyl terminal 3xFLAG tag was used to generate custom adenoviruses as previously described. Adeno-CMV-Luciferase (Ad-Luc) from Vector Biolabs was used as a negative control. Human Coronary Artery Smooth Muscle Cells (HCA-SMC) were obtained from Lonza and expanded in Lonza SmGM-2 media in 15 cm tissue culture plates. Twenty-four hours before media collection, near confluent plates were transduced with 50 MOI adenovirus and switched to Lonza Basal SM media with volumes of 20 ml per 15 cm plate. Expression of the Flag tagged ADAMTS7 was confirmed from the media using western blot and detected using the anti-Flag M2-HRP antibody (Sigma, A8592). Collected media was processed by adding protease inhibitors (1 mM EDTA and 1 mM PMSF) and clarified by 500 g×5 min spin at 4 C to pellet cell debris. Cell media supernatants were then passed through a 0.22 um filter and kept chilled. Processed media was then concentrated 50-100× using 3 kDa Centricon Plus-70 filter unit, spun at 3,500 g×60 min at 4 C. Approximately 10% of the processed, concentrated media was set aside for total secretome proteolytic analysis. The remaining 90% of the processed, concentrated media was buffer exchanged into 50 mM HEPES pH 8.0, 150 mM NaCl (2×50 ml) using the 3 kDa Centricon Plus-70 filter unit and concentrated to >2 mg/ml to serve as input for the TAILS experiment. Secretome and TAILS input samples were stored at −80° C.
For the first experiment, referred to as SMC1, 120 ml of media from 6×15 cm dishes was pooled from each condition (Luc, WT, EQ) and processed to produce three separate inputs for the TAILS experiment. Luc, WT and EQ inputs from the SMC1 experiment were each divided into triplicate 400 ug samples to generate technical replicate TAILS data. For the second experiment, referred to as SMC2, media was processed separately in triplicate for each condition (Luc1, Luc2, Luc3, WT1, WT2, WT3, EQ1, EQ2, EQ3) using 60 ml of media from 3×15 cm dishes for each process replicate. Inputs from the SMC2 experiment used process replicates of 300 ug each to generate TAILS data. The third experiment used input from cultured Human umbilical vein endothelial cells (HUVEC) from Lifeline Cell Technology grown in VascuLife Media and transduced in Lifeline Basal EC (+bFGF2 10 ng/ml). The HUVEC experiment used the same strategy as the SMC2 experiment, with 40 ml of media from 2×15 cm dishes for each process replicate and used 200 ug each to generate TAILS data. Inputs for process replicate experiments were restricted to the lowest concentration from the 9 parallel samples for SMC2 or HUVEC.
TMT10 isotopic labeling and negative selection of non-labeled peptides-Sample preparation was performed based on the TAILS protocol from the Overall lab with some modifications. From a single experiment, nine parallel protein samples in 50 mM HEPES pH 8.0, 150 mM NaCl were separately denatured with guanidinium chloride (Sigma, G4505) to reach a final concentration of 2.5M guanidinium chloride and 250 mM HEPES and incubated at 65° C. for 15 min. Reduction was achieved through addition of tris(2-carboxylethyl) phosphine (TCEP) at a final concentration of […] and incubated at 65° C. for 45 min. Alkylation reaction was performed with addition of iodoacetamide (IAA, Sigma, A3221) to a final concentration of 10 mM IAA for 15 min at room temperature in the dark. Following denaturation, reduction and alkylation steps, ten percent of each of the nine parallel protein samples was removed and combined to serve as a pooled reference. Isobaric tags were added to free amine groups using the TMT10plex Isobaric Mass Tagging Kit (ThermoFisher, 90113) with TMT channels randomly assigned to the nine samples and TMT 131 assigned to the pooled reference. […]
Consider “AEBP1_37 (FLEGFLSELEPEPR; listed as Homo sapiens)”, for which the logFC.mEQ.over.Luc is recorded as −0.58. The same measure for “EFEMP1_124 (AVAGPEMQTGR; listed as Homo sapiens)”: −0.38. Consider “FBN1_29 (LEAGNVKETR; listed as Homo sapiens)”, for which the logFC.mEQ.over.Luc is given as −0.34. In turn, “FLNA_1285 (LTQTGGPHVKAR; listed as Homo sapiens)” had a logFC.mEQ.over.Luc of −0.52. The same measure for “FN1_36 (MVQPQSPVAVSQSKPGCYDNGKHYQINQQWER; listed as Homo sapiens)”: −0.47.

The substance “FN1_40 (QSPVAVSQSKPGCYDNGKHYQINQQWER; listed as Homo sapiens)” showed a logFC.mEQ.over.Luc of −0.50.

Substance “FN1_886 (NQESTPVVIQQETTGTPR; listed as Homo sapiens)” registered a logFC.mEQ.over.Luc of −0.43. The figure for “FN1_1143 (LTPGVEYVYTIQVLR; listed as Homo sapiens)” is −0.24. The substance “FN1_1656 (SSSPVTGYR; listed as Homo sapiens)” gave a logFC.mEQ.over.Luc of −0.08.

Turning to “HSPG2_2331 (ANLAYPAGSTQPIR; listed as Homo sapiens)”, the logFC.mEQ.over.Luc was −0.01.

Take “IGFBP7_101 (AAGGPGVSGVCVCKSR; listed as Homo sapiens)”: the logFC.mEQ.over.Luc is listed as −0.04.

Substance “LOXL2_37 (FQQPAPEYHQPQAPANVAKIQLR; listed as Homo sapiens)” returned a logFC.mEQ.over.Luc of −0.65. The same measure for “LOX_124 (WFQAGYSTSR; listed as Homo sapiens)”: 0.03; for “LTBP1_393 (LTATNFR; listed as Homo sapiens)”: −0.18.
